# In PMC7606452:
# Target: recombinant K18 tau K311Q (acetylation-mimic) (human)
# Assay: Thioflavin T fluorescence of heparin-induced aggregation; 10 μM K18 tau, 100 mM sodium acetate pH 7.0, 2 mM DTT, 10 μM heparin, 37 °C; 10 μM ThT, 430 nm excitation and 500 nm emission
substance,measurement,value
recombinant K18 tau K311Q (acetylation-mimic) (domain or fragment),fold increase in ThT-positive fibrils against WT or K311R,3 fold
